# T1: EsCas13d, nuclease-dead (Eubacterium siraeum, UniProt B0MS50, R295A;H300A;R849A;H854A)
# T1 sequence: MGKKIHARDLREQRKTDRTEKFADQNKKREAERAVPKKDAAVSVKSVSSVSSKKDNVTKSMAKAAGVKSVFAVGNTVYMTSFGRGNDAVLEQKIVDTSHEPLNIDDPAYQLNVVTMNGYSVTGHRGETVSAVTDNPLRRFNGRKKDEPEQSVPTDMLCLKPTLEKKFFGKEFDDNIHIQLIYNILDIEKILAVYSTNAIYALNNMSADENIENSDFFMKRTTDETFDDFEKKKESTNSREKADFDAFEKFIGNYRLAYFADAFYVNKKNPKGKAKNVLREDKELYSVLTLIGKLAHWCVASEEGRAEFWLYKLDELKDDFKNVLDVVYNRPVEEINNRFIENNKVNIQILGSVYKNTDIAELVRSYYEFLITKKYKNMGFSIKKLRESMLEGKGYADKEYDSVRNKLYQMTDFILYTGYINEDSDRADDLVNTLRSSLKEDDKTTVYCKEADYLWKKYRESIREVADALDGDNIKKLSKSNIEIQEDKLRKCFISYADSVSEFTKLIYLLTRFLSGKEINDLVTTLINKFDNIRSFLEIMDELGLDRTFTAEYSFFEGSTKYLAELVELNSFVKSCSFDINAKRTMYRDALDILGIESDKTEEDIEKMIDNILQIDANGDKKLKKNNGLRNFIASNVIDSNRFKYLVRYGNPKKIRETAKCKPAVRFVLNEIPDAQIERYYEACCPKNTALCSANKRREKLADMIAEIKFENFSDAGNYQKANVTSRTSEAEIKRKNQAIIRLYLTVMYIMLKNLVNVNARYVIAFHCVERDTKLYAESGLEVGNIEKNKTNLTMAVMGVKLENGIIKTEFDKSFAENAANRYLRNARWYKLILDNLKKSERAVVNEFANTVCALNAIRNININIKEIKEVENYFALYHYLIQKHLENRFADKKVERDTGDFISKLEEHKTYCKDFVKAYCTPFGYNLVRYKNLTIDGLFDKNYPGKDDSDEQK
# B1: target 1 MT 5'PFS GUG 3'PFS AGA (mixed)
# RNA 1: CACCCGUGCAAAAAUGCAGGGGUCUAAAACUGAGCGGAUAACCUCUCUAUGG
# RNA 2: GGGAAUGGAUCCACAUCUACGAAUUCGUGCCAUAGAGAGGUUAUCCGCUCAAGAAGAUCGGAAGAGCACACGU
# B2: target 1 MT 5'PFS GUA 3'PFS UCA (mixed)
# RNA 1: CACCCGUGCAAAAAUGCAGGGGUCUAAAACUGAGCGGAUAACCUCUCUAUGG
# RNA 2: GGGAAUGGAUCCACAUCUACGAAUUCGUACCAUAGAGAGGUUAUCCGCUCAUCAAGAUCGGAAGAGCACACGU
# B3: target 1 C7A,G12A (mixed)
# RNA 1: CACCCGUGCAAAAAUGCAGGGGUCUAAAACUGAGCGGAUAACCUCUCUAUGG
# RNA 2: GGGAAUGGAUCCACAUCUACGAAUUCGUACCAUAGAGAGAUUAUACGCUCACCGAGAUCGGAAGAGCACACGU
# B4: target 1 MT 5'PFS GUA 3'PFS UCC (mixed)
# RNA 1: CACCCGUGCAAAAAUGCAGGGGUCUAAAACUGAGCGGAUAACCUCUCUAUGG
# RNA 2: GGGAAUGGAUCCACAUCUACGAAUUCGUACCAUAGAGAGGUUAUCCGCUCAUCCAGAUCGGAAGAGCACACGU
# B5: target 1 MT 5'PFS GUA 3'PFS UCG (mixed)
# RNA 1: CACCCGUGCAAAAAUGCAGGGGUCUAAAACUGAGCGGAUAACCUCUCUAUGG
# RNA 2: GGGAAUGGAUCCACAUCUACGAAUUCGUACCAUAGAGAGGUUAUCCGCUCAUCGAGAUCGGAAGAGCACACGU
# B6: target 1 MT 5'PFS AGG 3'PFS ACG (mixed)
# RNA 1: CACCCGUGCAAAAAUGCAGGGGUCUAAAACUGAGCGGAUAACCUCUCUAUGG
# RNA 2: GGGAAUGGAUCCACAUCUACGAAUUCAGGCCAUAGAGAGGUUAUCCGCUCAACGAGAUCGGAAGAGCACACGU
# B7: target 1 MT 5'PFS ACA 3'PFS AUG (mixed)
# RNA 1: CACCCGUGCAAAAAUGCAGGGGUCUAAAACUGAGCGGAUAACCUCUCUAUGG
# RNA 2: GGGAAUGGAUCCACAUCUACGAAUUCACACCAUAGAGAGGUUAUCCGCUCAAUGAGAUCGGAAGAGCACACGU
# B8: target 1 MT 5'PFS ACA 3'PFS AUA (mixed)
# RNA 1: CACCCGUGCAAAAAUGCAGGGGUCUAAAACUGAGCGGAUAACCUCUCUAUGG
# RNA 2: GGGAAUGGAUCCACAUCUACGAAUUCACACCAUAGAGAGGUUAUCCGCUCAAUAAGAUCGGAAGAGCACACGU
# B9: target 1 MT 5'PFS AGG 3'PFS ACC (mixed)
# RNA 1: CACCCGUGCAAAAAUGCAGGGGUCUAAAACUGAGCGGAUAACCUCUCUAUGG
# RNA 2: GGGAAUGGAUCCACAUCUACGAAUUCAGGCCAUAGAGAGGUUAUCCGCUCAACCAGAUCGGAAGAGCACACGU
# B10: target 1 MT 5'PFS ACA 3'PFS AUC (mixed)
# RNA 1: CACCCGUGCAAAAAUGCAGGGGUCUAAAACUGAGCGGAUAACCUCUCUAUGG
# RNA 2: GGGAAUGGAUCCACAUCUACGAAUUCACACCAUAGAGAGGUUAUCCGCUCAAUCAGAUCGGAAGAGCACACGU
# B11: target 1 MT 5'PFS CAA 3'PFS CUG (mixed)
# RNA 1: CACCCGUGCAAAAAUGCAGGGGUCUAAAACUGAGCGGAUAACCUCUCUAUGG
# RNA 2: GGGAAUGGAUCCACAUCUACGAAUUCCAACCAUAGAGAGGUUAUCCGCUCACUGAGAUCGGAAGAGCACACGU
# B12: target 1 MT 5'PFS UUA 3'PFS AUU (mixed)
# RNA 1: CACCCGUGCAAAAAUGCAGGGGUCUAAAACUGAGCGGAUAACCUCUCUAUGG
# RNA 2: GGGAAUGGAUCCACAUCUACGAAUUCUUACCAUAGAGAGGUUAUCCGCUCAAUUAGAUCGGAAGAGCACACGU
# B13: target 1 MT 5'PFS UCA 3'PFS CCG (mixed)
# RNA 1: CACCCGUGCAAAAAUGCAGGGGUCUAAAACUGAGCGGAUAACCUCUCUAUGG
# RNA 2: GGGAAUGGAUCCACAUCUACGAAUUCUCACCAUAGAGAGGUUAUCCGCUCACCGAGAUCGGAAGAGCACACGU
# B14: target 1 insA 3' of 10,insG 3' of 3 (mixed)
# RNA 1: CACCCGUGCAAAAAUGCAGGGGUCUAAAACUGAGCGGAUAACCUCUCUAUGG
# RNA 2: GGGAAUGGAUCCACAUCUACGAAUUCGUACCAUAGAGAGGUUAAUCCGCUGCACCGAGAUCGGAAGAGCACACGU
# B15: target 1 MT 5'PFS CAA 3'PFS CUC (mixed)
# RNA 1: CACCCGUGCAAAAAUGCAGGGGUCUAAAACUGAGCGGAUAACCUCUCUAUGG
# RNA 2: GGGAAUGGAUCCACAUCUACGAAUUCCAACCAUAGAGAGGUUAUCCGCUCACUCAGAUCGGAAGAGCACACGU
# B16: target 1 MT 5'PFS UCA 3'PFS CCC (mixed)
# RNA 1: CACCCGUGCAAAAAUGCAGGGGUCUAAAACUGAGCGGAUAACCUCUCUAUGG
# RNA 2: GGGAAUGGAUCCACAUCUACGAAUUCUCACCAUAGAGAGGUUAUCCGCUCACCCAGAUCGGAAGAGCACACGU
# B17: target 1 MT 5'PFS AGG 3'PFS ACU (mixed)
# RNA 1: CACCCGUGCAAAAAUGCAGGGGUCUAAAACUGAGCGGAUAACCUCUCUAUGG
# RNA 2: GGGAAUGGAUCCACAUCUACGAAUUCAGGCCAUAGAGAGGUUAUCCGCUCAACUAGAUCGGAAGAGCACACGU
# B18: target 1 MT 5'PFS UUA 3'PFS CGC (mixed)
# RNA 1: CACCCGUGCAAAAAUGCAGGGGUCUAAAACUGAGCGGAUAACCUCUCUAUGG
# RNA 2: GGGAAUGGAUCCACAUCUACGAAUUCUUACCAUAGAGAGGUUAUCCGCUCACGCAGAUCGGAAGAGCACACGU
# B19: target 1 MT 5'PFS UUA 3'PFS AUG (mixed)
# RNA 1: CACCCGUGCAAAAAUGCAGGGGUCUAAAACUGAGCGGAUAACCUCUCUAUGG
# RNA 2: GGGAAUGGAUCCACAUCUACGAAUUCUUACCAUAGAGAGGUUAUCCGCUCAAUGAGAUCGGAAGAGCACACGU
# B20: target 1 MT 5'PFS UUA 3'PFS AUA (mixed)
# RNA 1: CACCCGUGCAAAAAUGCAGGGGUCUAAAACUGAGCGGAUAACCUCUCUAUGG
# RNA 2: GGGAAUGGAUCCACAUCUACGAAUUCUUACCAUAGAGAGGUUAUCCGCUCAAUAAGAUCGGAAGAGCACACGU
# B21: target 1 MT 5'PFS UUA 3'PFS AUC (mixed)
# RNA 1: CACCCGUGCAAAAAUGCAGGGGUCUAAAACUGAGCGGAUAACCUCUCUAUGG
# RNA 2: GGGAAUGGAUCCACAUCUACGAAUUCUUACCAUAGAGAGGUUAUCCGCUCAAUCAGAUCGGAAGAGCACACGU
# B22: target 1 MT 5'PFS CCU 3'PFS AGA (mixed)
# RNA 1: CACCCGUGCAAAAAUGCAGGGGUCUAAAACUGAGCGGAUAACCUCUCUAUGG
# RNA 2: GGGAAUGGAUCCACAUCUACGAAUUCCCUCCAUAGAGAGGUUAUCCGCUCAAGAAGAUCGGAAGAGCACACGU
# B23: target 1 MT 5'PFS AAA 3'PFS ACC (mixed)
# RNA 1: CACCCGUGCAAAAAUGCAGGGGUCUAAAACUGAGCGGAUAACCUCUCUAUGG
# RNA 2: GGGAAUGGAUCCACAUCUACGAAUUCAAACCAUAGAGAGGUUAUCCGCUCAACCAGAUCGGAAGAGCACACGU
# B24: target 1 MT 5'PFS GCA 3'PFS UCA (mixed)
# RNA 1: CACCCGUGCAAAAAUGCAGGGGUCUAAAACUGAGCGGAUAACCUCUCUAUGG
# RNA 2: GGGAAUGGAUCCACAUCUACGAAUUCGCACCAUAGAGAGGUUAUCCGCUCAUCAAGAUCGGAAGAGCACACGU
# B25: target 1 insG 3' of 18,insG 3' of 10 (mixed)
# RNA 1: CACCCGUGCAAAAAUGCAGGGGUCUAAAACUGAGCGGAUAACCUCUCUAUGG
# RNA 2: GGGAAUGGAUCCACAUCUACGAAUUCGUACCAUAGGAGAGGUUGAUCCGCUCACCGAGAUCGGAAGAGCACACGU
# B26: target 1 MT 5'PFS AAA 3'PFS ACA (mixed)
# RNA 1: CACCCGUGCAAAAAUGCAGGGGUCUAAAACUGAGCGGAUAACCUCUCUAUGG
# RNA 2: GGGAAUGGAUCCACAUCUACGAAUUCAAACCAUAGAGAGGUUAUCCGCUCAACAAGAUCGGAAGAGCACACGU
# B27: target 1 MT 5'PFS GCA 3'PFS UCG (mixed)
# RNA 1: CACCCGUGCAAAAAUGCAGGGGUCUAAAACUGAGCGGAUAACCUCUCUAUGG
# RNA 2: GGGAAUGGAUCCACAUCUACGAAUUCGCACCAUAGAGAGGUUAUCCGCUCAUCGAGAUCGGAAGAGCACACGU
# B28: target 1 MT 5'PFS AAA 3'PFS ACG (mixed)
# RNA 1: CACCCGUGCAAAAAUGCAGGGGUCUAAAACUGAGCGGAUAACCUCUCUAUGG
# RNA 2: GGGAAUGGAUCCACAUCUACGAAUUCAAACCAUAGAGAGGUUAUCCGCUCAACGAGAUCGGAAGAGCACACGU
# Molecular target: T1, EsCas13d, nuclease-dead
# Assay: crRNA (strand 1, pre-loaded); Mg2+; 40 mM Tris-HCl pH 7.5, 150 mM NaCl, 6 mM MgCl2, 1 mM DTT, 0.1% Tween-20, 0.2 mg/ml BSA; 25 C; 10 min per concentration, then washed
# Conditions: tags: His6-TwinStrep-SUMO cleaved; N-terminal SNAP kept (SNAP-Surface 488); label: 3' end held by stalled T7 RNA polymerase
row,Binder,Kd
1,B1,15.9 ± 1 nM
2,B2,12.3 ± 0.95 nM
3,B3,9.6 ± 0.8 nM
4,B4,7.33 ± 0.61 nM
5,B5,8.56 ± 0.55 nM
6,B6,41 ± 10 nM
7,B7,39.5 ± 14.5 nM
8,B8,12.2 ± 3.9 nM
9,B9,46.5 ± 22 nM
10,B10,56 ± 25.5 nM
11,B11,14.5 ± 5 nM
12,B12,13.2 ± 2.1 nM
13,B13,~25 nM
14,B14,7.18 ± 0.25 nM
15,B15,~25 nM
16,B16,~69 nM
17,B17,42 ± 12 nM
18,B18,18 ± 7 nM
19,B19,64.5 ± 23 nM
20,B20,77 ± 25 nM
21,B21,20.5 ± 5 nM
22,B22,31.5 ± 14.5 nM
23,B23,42 ± 13.5 nM
24,B24,11.8 ± 2.9 nM
25,B25,61 ± 15 nM
26,B26,29.5 ± 14 nM
27,B27,13.7 ± 2.4 nM
28,B28,18.6 ± 4.45 nM

# From paper PMC10786891, “Massively parallel profiling of RNA-targeting CRISPR-Cas13d”
